One test has as its target K63-linked diubiquitin (UniProt P0CG48). The test is described as follows: ITC; MicroCal iTC200; proteins dialysed in 20 mM Hepes pH 7.5, 150 mM NaCl, 200 μM TCEP; 2-μl injections; who was in the cell is not given; ranges of Kd are from fits with N fixed to 1 (first value: active concentration in the cell varied, second: in the syringe); Kd of S470R and E467R/S470R called apparent.

Test [1] concerns the target K63-linked tetraubiquitin (UniProt P0CG48). The description is as above.

Take “ASCC2 CUE domain (construct of the ITC experiments of Figure 2) (from UniProt Q9H1I8 463-525) (domain or fragment)”: in the test with K63-linked diubiquitin, the Kd lay in the range of 8.7 to 10.4 µM and the stoichiometry N (ASCC2 CUE domain per K63Ub2) turned out to be 1. The stoichiometry N (ASCC2 CUE domains per K63Ub4) in test [1] is 2.

Values taken from PMC8800115.
